Assay [1] concerns the target gp140UG37 (ARP698, Polymun) (HIV-1 strain UG037). The assay can be described thus: ELISA.
Assay [2] deals with recombinant gp41 (ARP680) (HIV-1). The assay can be described thus: ELISA. (ELISA stands for enzyme-linked immunosorbent assay.)

This passage reports IC50 results from publication PMC6640723 (2019).

As a reminder, the IC50 is the concentration at which inhibition is half-maximal.

B1: VHH 2E7 (VHH)
VHH: DVQLQESGGGLVQPGGSLRLSCAASGNIVSIDAAGWFRQAPGKQREPVATILTGGATNYADSVKGRFTISRDNAKNTVYLQMNSLKPEDTAVYYCYAPMIYYGGRYSDYWGQGTQVTVS
For the molecule B1, the IC50 was 0.9 nM in assay [1] and 3.2 nM in assay [2].
